Experiment: soluble on expression in E. coli; label from the status in PepcDB or PDB records

For “MKALLPGLYLLPVPIPYPLKTVNLYLLQGAGEVALVDTALGTRAARGALELHLAELGLCFQDVKTILLTHHHPDHYGLSGFFEGLGARVFLHEEEFARGHRFWREPEAFAEASWRLFLDHGTPEGALQGIRETVEKTRERVHPPQNPLPLRDGEALEVAGKRLRVLWTPGHADGHAAFYLEEEGVLLAGDALLEKVSPNVGLWAYTRENPLKDFLRSLDRLADLGARVAYAGHFGPIADVRQRAEELKAHHQARLEALLALLDGPKTAWELSLHLFPQELDPAGRRFAFAETLAHLEYLREEGAVGRGGPPYRYFRR”, which “soluble on expression in E. coli” value is on record?
The value was “soluble”.

For “SSTGTFVVSQPLNYRGGARVEPADASGTEKAFEPATGRVIATFTCSGEKEVNLAVQNAKAAFKIWSQKSGMERCRILLEAARIIREREDEIATMECINNGKSIFEARLDIDISWQCLEYYAGLAASMAGEHIQLPGGSFGYTRREPLGVCVGIGAWNYPFQIASWKSAPALACGNAMVFKPSPFTPVSALLLAEIYSEAGVPPGLFNVVQGGAATGQFLCQHPDVAKVSFTGSVPTGMKIMEMSAKGIKPVTL”, which “soluble on expression in E. coli” value is on record?
The value was “soluble”.

With “MKYFFETRLGETRYRLADGSLLCKDVPIGRTGKQLYGADDLPKLKPDKFVEIVVTRSPEQVFHPATLASFEGMSITILHPEDENGNVRLVNPENWKVLAVGHLQNVRRGTGEQSDLMLADLIVKDESAIQLIEDGLREVSCGYDAEYEQTEPGKAEQVDITGNHVALVPKGRAGNRCAIGDRDTMANQKKNWWNRMRAAIKTGDADTMNELVESAPASVTGDEGDLPQGVNLNINLSPQQPLPDKAPEMGGDPTGDSDDDLKTLLKALLAKLERNATGDNDNKPDDNPTGDGEDDEEETTITGDSAWRAEVIVPGIDLSRKMKPTAFKREVLASADKTLVRQIVGDADIRKLPKQSVDMAFNAVSEVAKGRNTRATTGDAQRLNMGMTSIASLNKQNAEFWANRKG” as the sequence, how does the “soluble on expression in E. coli” value read?
Its value is “not soluble”.

Which “soluble on expression in E. coli” value does the source give for “MDSDLKKVQKNSDQKQVSKSKTATAPTEPFNSKATELPSILKPKFPSDKVLKKKKSGDMFDLVGQIVIDIVDDNPDDDDRQDEATTVDTVQEGIGATVDVTLVEDVAEKAHEPASTPNVADRLQKPVAKDDNSAPVEEANRKKKEGKDPKNSEEAKKNSKKGKNGTARRSALKGVTIPPVAASLPCPPPPPPLSERKKNVGPKPCVGPAQKNLSSQRKHSSKRNRKGLLRNVAKLWGRKSDGIANPTKAMLSKKYVPPDYGVNPVDFMPDLECYFSKNDITVRDKNKCSKGEVFVEKLPFWLARLPSDDDIPKAQIQAHRPLKQAFEGNPSLLLPKCPRTLPFCEPDSDTLEKFKQVDKQMGTDVPEQASKRLCTNTFYGTLMFEKDKSASEEVKKKKEEPKLKSLGEESKLETKPKPYDFLQKKSTKTTGERGRQKPQLQKVPPQKLETGANVQKVKKMSARGLKVEMYYKLAEKNEAETSDVSILIDGHKRKFAVICNGIGREMVDLHYDSKKFPRIFSRERHLYVMFSESTSDGFRLTFGATEREQFLRIMHSLGCLLDTAIVKFSQQSSSSQPPPMRRDSTAVFNNSYNQYTSFQQASQPRVFSTIKLELSGDSCNSAFQPSQPTGFPDNQLLTIKKSSSNQISLSVEVADKCIQTEDLVDLLADDEYCMRKALRKMIENPSFIKAVAAAENTLQYIPQAEQEGLEDVTEPPINDIFFDRFHQPQLEQHDSVPED” here?
Its value is “soluble”.

With “RKWAEDNEVQNCMACGKGFSVTVRRHHCRQCGNIFCAECSAKNALTPSSKKPVRVCDACFNDLQG” as the sequence, how does the “soluble on expression in E. coli” value read?
Its value is “soluble”.

For “MERKALVTGGSRGIGRAIAEALVARGYRVAIASRNPEEAAQSLGAVPLPTDLEKDDPKGLVKRALEALGGLHVLVHAAAVNVRKPALELSYEEWRRVLYLHLDVAFLLAQAAAPHMAEAGWGRVLFIGSVTTFTAGGPVPIPAYTTAKTALLGLTRALAKEWARLGIRVNLLCPGYVETEFTLPLRQNPELYEPITARIPMGRWARPEEIARVAAVLCGDEAEYLTGQAVAVDGGFLAY”, which “soluble on expression in E. coli” value is on record?
Its value is “soluble”.

With “MHLYYLGPKGTFSYLAAKQFESHEQYDFIPLSNLHEVIQSVSKDKQAVGIVPIENSIEGTINIVADSLAHHDVYAHGEIQLDIDFSLYGHHSNSLDDIHKVYSIAPAISQTINYIHRQQFDYDYVDSTIQSLNMIKDGIGAIAPLGSGETYGYHTLDQHIQDYPHNVTRFLVVKNHTHFIEHPNTTIFLITPKYDKPGLLASVLNTFTLFNINLSWIESRPLKTQLGMYHFYVQADTAINNDVNKIISILETLDFQVKIIGAFNKKN” as the sequence, how does the “soluble on expression in E. coli” value read?
The value was “not soluble”.

— the DeepSol protein solubility set
